As a reminder, the EC50 is the midpoint of the concentration-response curve. A low value points to an effect from little substance.

This passage reports EC50 results from US20240301046A1.

For test [1], the target named is Aβ1-40 monomer (rPeptide, A-1157-2) (UniProt P05067). Put plainly: direct ELISA, coated Aβ1-40 monomer, 50 pmol per well. (In general: ELISA stands for enzyme-linked immunosorbent assay.)
For test [2], the target named is biotin-labelled Aβ1-40 monomer (AnaSpec, AS-61483-01) (UniProt P05067). Put plainly: capture ELISA, antibody coated at 100 ng per well, biotin-Aβ40 monomer.
The target in test [3] is Aβ1-42 fibril (rPeptide, AF-1002) (UniProt P05067). Put plainly: direct ELISA, coated Aβ1-42 fibril, 50 pmol per well.
Another test deals with Aβ1-42 protofibril (UniProt P05067). Put plainly: direct ELISA, coated Aβ1-42 protofibril, 50 pmol per well.

Take “non-conformation selective anti-Aβ antibody 6E10 (BioLegend, 803001)”: the EC50 was 50000 nM in test [1], 0.067 nM in test [2], 0.08 nM in test [3] and 0.05 nM in the test with Aβ1-42 protofibril.
